Measured values taken from US20220241354A1, “COMPOSITION” (MORINAGA MILK INDUSTRY CO., LTD., priority 2019, published 2022).

Key:
[1] = tested on: Bifidobacterium infantis M-63; assay: Growth promoting effect on Bifidobacterium infantis M-63 (turbidity at 600 nm); format: cell-based; conditions: 2′-FL 0.000 mass %, 37° C., 24 hours, n = 12
Description: (§1) 150 μL of a pre-culture solution of Bifidobacterium breve M-16V was added to 3 mL of MRS medium prepared in (1) (i), and was anaerobically cultured at 37° C. for 16 hours. After culturing, the cells were separated from the culture solution by centrifuging at 1500×g for 5 minutes. The culture solution was removed, and the cells were resuspended in 3 mL of glucose-free MRS medium prepared in (1) (ii).
(§2) The pre-culture solution prepared in (2) was added to the glucose-free MRS medium prepared in (1) (ii) to have a final concentration of 1 v/v %. Further, the 2′-fucosyllactose (2′-FL) solution and the lactoferrin solution prepared in (1) (iii) were respectively added to have the final concentrations shown in Table 2, and were dispensed into a 96-well plate at 200 μL/well.
(§3) Then, the cells were anaerobically cultured at 37° C. for 24 hours. After culturing, turbidity was measured at a wavelength of 600 nm using a microplate reader (Corona Electric) to evaluate the growth of bifidobacteria.
The same operation as in Example 1 was carried out except that the bifidobacteria were replaced with Bifidobacterium infantis M-63, and the growth was evaluated.

[2] = tested on: Bifidobacterium breve M-16V; assay: Growth promoting effect on Bifidobacterium breve M-16V (turbidity at 600 nm after anaerobic culture); format: cell-based; conditions: 2′-FL 0.000 mass %, glucose-free MRS, 37° C., 24 hours, n = 4
Description: (§4) DifcoMRS (BD) was dissolved in purified water as described in a package insert and sterilized at 115° C. for 15 minutes. L-Cysteine hydrochloride (Wako) was dissolved in purified water, filtered and sterilized, and was aseptically added to MRS medium cooled to room temperature after sterilization to have a final concentration of 0.05% by mass.
as §4, with “A reagent” for “DifcoMRS (BD)”, “with the composition shown” for “as described”, “Table 1” for “a package insert”
Human milk oligosaccharide (2′-fucosyllactose (2′-FL) (Carbosynth)) and lactoferrin (produced by Morinaga Milk Industry Co., Ltd., iron content 15.8 mg/100 g) were dissolved in purified water, respectively. They were filtered and sterilized after dissolution.
as §1, §2, §3

B1: lactoferrin (protein, UniProt P24627 20-708, looked up)
Lactotransferrin: APRKNVRWCTISQPEWFKCRRWQWRMKKLGAPSITCVRRAFALECIRAIAEKKADAVTLDGGMVFEAGRDPYKLRPVAAEIYGTKESPQTHYYAVAVVKKGSNFQLDQLQGRKSCHTGLGRSAGWIIPMGILRPYLSWTESLEPLQGAVAKFFSASCVPCIDRQAYPNLCQLCKGEGENQCACSSREPYFGYSGAFKCLQDGAGDVAFVKETTVFENLPEKADRDQYELLCLNNSRAPVDAFKECHLAQVPSHAVVARSVDGKEDLIWKLLSKAQEKFGKNKSRSFQLFGSPPGQRDLLFKDSALGFLRIPSKVDSALYLGSRYLTTLKNLRETAEEVKARYTRVVWCAVGPEEQKKCQQWSQQSGQNVTCATASTTDDCIVLVLKGEADALNLDGGYIYTAGKCGLVPVLAENRKSSKHSSLDCVLRPTEGYLAVAVVKKANEGLTWNSLKDKKSCHTAVDRTAGWNIPMGLIVNQTGSCAFDEFFSQSCAPGADPKSRLCALCAGDDQGLDKCVPNSKEKYYGYTGAFRCLAEDVGDVAFVKNDTVWENTNGESTADWAKNLNREDFRLLCLDGTRKPVTEAQSCHLAVAPNHAVVSRSDRAAHVKQVLLHQQALFGKNGKNCPDKFCLFKSETKNLLFNDNTECLAKLGGRPTYEEYLGTEYVTAIANLKKCSTSPLLEACAFLTR
notes: lactoferrin produced by Morinaga Milk Industry Co., Ltd., iron content 15.8 mg/100 g
[1]; lactoferrin 0.500 mg/mL
  OD600: 0.093
[1]; lactoferrin 1.000 mg/mL
  OD600: 0.101
[2]; lactoferrin 0.031 mg/mL
  OD600: 0.072
[2]; lactoferrin 0.063 mg/mL
  OD600: 0.074
[2]; lactoferrin 0.125 mg/mL
  OD600: 0.073
[2]; lactoferrin 0.250 mg/mL
  OD600: 0.074
[2]; lactoferrin 0.500 mg/mL
  OD600: 0.075
[2]; lactoferrin 1.000 mg/mL
  OD600: 0.078
